Test results taken from the DeepSol protein solubility set.

Assay: soluble on expression in E. coli; label from the status in PepcDB or PDB records

MITNDHDRRKQISVRGIAQVENVSNIKKAFNRHLHFSIIKDRNVATDRDYYFALANTVRDHLVSRWIRTQQHYYDKDPKRVYYLSLEFYMGRTLSNTMMNLGIQATVDEALYQLGLDIEELQEIEEDAGLGNGGLGRLAACFLDSMATLGIPAYGYGLRYEYGIFKQLIRDGWQIEEPDDWLRFGNPWEKARPEYMLPVNFYGKVVKEDGKSKWIDTQVVFAMPYDTPVPGYKNNIVNTLRLWSAKAENHFHLKFFNDGDYVQAVMDRNLSENITRVLYPNDNMFLGKELRLKQQYFLVAATLQDIIRRFKSSIYGNREAVRVNFETFPDKVAIQLNDTHPSIGIPELIRLLIDVEGLTWDQAWDICIKTYAYTNHTLLPEALERWPVSLMQNLLPRHLEIIYEINQKFMNTISQRFPGDFDRMRRMSIVEEADQFGEKRINMAHLCIVASHAINGVAALHSDLLKSSTFRDFYEFYPDRFQNKTNGITPRRWLLLSNPSLADLIVEKIGESWITNLDELQKLKEYANDAGFLDSIRRVKLENKQQVAQYLSDEYNVNVNAASLFDVHVKRIHEYKRQLLNILHVIALYNRIKENPNIDMVKRTVLYGGKAAPGYHMAKQIIRLITAVAEQVNNDAIVGDRLKVIFLENYRVSMAEKIIPASDLSEQISTAGTEASGTGNMKFMLNGALTIGTLDGANVEMAEEMGDENIFIFGMNVEEVEALTKRGYSSQEFIDKSPMLKQIIEQIEGGMFTPEDPDQLKDLSNMLRYHDRFMVCADFDAFIEAQDKVSATFRDQEKWSRMALYNIASTGKFSTDRTITEYAREIWGIDQFESSLPAPYENEKSE
soluble on expression in E. coli: not soluble

MSPHYLRQVKESSGSRLIQQRLLHQQQPLHPEWAALAKKQLKGKNPEDLIWHTPEGISIKPLYSKRDTMDLPEELPGVKPFTRGPYPTMYTFRPWTIRQYAGFSTVEESNKFYKDNIKAGQQGLSVAFDLATHRGYDSDNPRVRGDVGMAGVAIDTVEDTKILFDGIPLEKMSVSMTMNGAVIPVLANFIVTGEEQGVPKEKLTGTIQNDILKEFMVRNTYIFPPEPSMKIIADIFEYTAKHMPKFNSISISGYHMQEAGADAILELAYTLADGLEYSRTGLQAGLTIDEFAPRLSFFWGIGMNFYMEIAKMRAGRRLWAHLIEKMFQPKNSKSLLLRAHCQTSGWSLTEQDPYNNIVRTAIEAMAAVFGGTQSLHTNSFDEALGLPTVKSARIARNTQIIIQEESGIPKVADPWGGSYMMECLTNDVYDAALKLINEIEEMGGMAKAVAEGIPKLRIEECAARRQARIDSGSEVIVGVNKYQLEKEDTVEVLAIDNTSVRNRQIEKLKKIKSSRDQALAERCLAALTECAASGDGNILALAVDASRARCTVGEITDALKKVFGEHKANDRMVSGAYRQEFGESKEITSAIKRVHKFMEREGRRPRLLVAKMGQDGHDRGAKVIATGFADLGFDVDIGPLFQTPREVAQQAVDADVHAVGVSTLAAGHKTLVPELIKELNSLGRPDILVMCGGVIPPQDYEFLFEVGVSNVFGPGTRIPKAAVQVLDDIEKCLEKKQQSVAENLYFQSHHHHHHDYKDDDDK
soluble on expression in E. coli: soluble

ANEVNVYSYRQPYLIEPMLKNFEKDTGIKVNIIFADKGLVDRVKQEGELSPADVLLTVDISRVMEIVNADLAQKIDSKVLEKNIPAQFRDSNDQWFGLTTRARVIYTSKDRVGKLPAGFDYLDLAKPEYKGKVCVRSGKNSYNVSLFAAMIEHYGIEKTKAFLEGLKANLARKPQGGDRDQVKAIKEGICDYSIGNSYYYGKMLDDEKQKSWAEAAIINFPSGEHGTHKNISGVVIAKHSPNKANAVKLIEYLSGEKAQGLYAELNHEYPVKEGIEPSAIVKGWGTFKSDTIKLEDIAKNYEAALKLVDEVKFDDFSEKK
soluble on expression in E. coli: soluble

MSLKHLWFEKGAYASKAARQYLNDHFNPLAVKKTAVIRHAALGDQVIVRPFLVEARKFFPNAEITLVTVSNYLYGTPSDLADKTVIMKSRDDSKQLSLRQKWQDYNQLEAQDIIFDVAGTNRSYWMTLLTKAKLKVGFPYKPFLCGTLYNLAVFRSDFQPEVECMLDMLKILGHNPSYPLDFAYPDNRQICDHAAPYIVYFSGASQLRKILTKPEMRAVIEQTIQQQPNVKHVFLEGKNEFEKGEYLQDLADNGSLTIQPCLPLDDLVTFIAKATLVIAPDTGIRNVAISTHTPTVGIFYATVPFRYTPLYEAHTIVMNANGEKPSTEQITSAIDTTLKMRLAAAKNTQEQEGHHHHHH
soluble on expression in E. coli: soluble

MSLKIAQATARVEAFALVRPYTIALRHVGTVENVIVQLQTASGLIGLGAASAAADVTGESDQACREALLGGAIGWLVGEDIRELPKLCRRLGERMAGRPAARAAVDIALHDLLAQHLGVPLVAMLGRVHTGLPTSITIGIKPLDETLAEAREYLGRGFRILKVKTGLDLEGDIERLARLREQVGDAVHLRVDPNQGYSIAEVEQFVRRTAHLFLEFLEQPIPAGDIAALRALPPDIRLRIAADESLLDERDALKLLTPSPACGIFNIKLMKCGGIRPALAIAGLAEIAGIELMWGCMDESIVSITAALHAALACPATRYLDLDGSLDLARDVVTGGFVLKDGYLSTREAPGLGVQLLSEGHHHHHH
soluble on expression in E. coli: not soluble

TKDFAFDLNVNMAHNVSKVKELAPEENVNYMFFNGDGNFPVKVGTRAGHKLGEIYATSLYKRNENGDIIVNENGLPMTVTNESEYVNKPIGNIQPKLTMSVSPTFTYKGITLSALFDMKFGGDIFSYSEMLATGNGLAKRTLNRGEENNYMMVFPGVTESGEVNTKQVSASEYYGALQAEDFIYDASFIKLKELSIGYSFPSSMLKKTPVNSLNVSFVARNLCYLMKHTPGTSPEGGYDTTMFSQAIDYASLPFTRTFGISINLGF
soluble on expression in E. coli: not soluble

MAGWETHKKAQWLCQLRKGMSMLPDTLSEQFVLYLDVLDGGSFSAAARKHPLTPSAVARRMDALERAVGSTLLVRTTHAVRATPAGLAFADRARRIVTELRLARAEAVSLSTAPQGLIRIDAPVPFGRRHLAPAVADFLKANPGLDVQLRLIGSFIDLQGEHLGEVDLVLRAGPLPDSRLVATSLAPMVRVVCASPEYLREHGVPASPGELPEHAGIDWDNLSPPYAWRFQHDGKLQHLRPKRARLATNNAEAMVDAALAGLGIAHLPTWLCSEYLLRGELQALFCDDGLPAAEPTCIYALRLEREASSRTRLLLAFLRERFGFPPPWDQALQQRLGER
soluble on expression in E. coli: not soluble

MGSDKIHHHHHHMIRISNKIKTLLAMLSFVQVTSGCDATVQDIIIDTDPGVEIGNNDYYTWCKETLSVIDKDLKISGTHSYYENQDRSQVSFIWGNIFLLYTYTEGISLSKSEWSDALMNCFLNFDNYWHPNYKGIAGYATLPTSAEKVPDRFYDENGWTAIGLCDAYLATQNNSYLEKAKGALAFSLSGEDNVLGGGIYFQETFVSLPVQKNTICSAVTMLSCMKLYEITQDRQYLDAAIRINDWTVENLLDKSDNLLWDAKMVADGSVNTQKWSYNAGFMIRSWLKMYQATKDEKYLSQAKATLASSEAKWYNSINGALNDPGYFAFSIIDSWFDMYDTDKNTVWLTKAFHAINFIHNKLRDGNGRYPEHWGTPTTSNLEKYDLRFSTVAAYMYMRAANYKRILND
soluble on expression in E. coli: not soluble

MNDSSLKKALSQNSISSAPRRPQKLGSVQSIVRNESDKNVPSPFEEITLSDDDEEAPAKKPVKCATCARDMTLWMNSRRDIHVKVCKAKQSEKEKETTRKSKTLTETIEKDDQVYEKPSSKTHLFEKPFEKPQELPKSWELSKNNVKFARIAEDDEENRKRKRPRSFAVVELAPKKCQCEVLTTLHSRFIDEFHSKSIKNQKKREEGVTEHAFQMKKMIEKISRYEQLSSDMQKVLDDNSEQLPTHIFITCSDGHRVKCQTMILKHRTSLIRLNPKSENIQVEHTKEVVKAWISFVFTANIEWNDDDKDGVRDLASKYGPVGLDLIVKNDKEEDLEKVDDVEDVVEPEAKIDSVVADPVEIEPTASHSDPIELDKSVNYFTSDDPFFGFGKAVENVEDDAEQIMEDKPHESVHSTPQKPTTNVTMDSFDEWSNQPSTNLPTTSNVITPIRNITSKAVFGSHVKILKTNDITPMPAFDSMEEAELKERMKEIGMRPKGKKAMIQILKKAYITLHPEICSGTPTIRPLVRSASLEKVSEQGGKGGRKTIKTKTLSERMIASPKKVSPKKQGVKNAISDETSKNVSNVSDDLDEDNDGDKTLNISNDEREVGKIWGDDVGDDEEDDDDMSASSTSGKHDLSALKLAFLTWLRSDQNTVLHEHILSLQPVSLEEMLIRLEKADGPLGRIGKGKLVKLLEMLKITYQLPQKTGRARGGYKRRL
soluble on expression in E. coli: not soluble

SSVWNLGRLNHVAIAVPDLEKAAAFYKNILGAQVSEAVPLPEHGVSVVFVNLGNTKMELLHPLGLDSPIAGFLQKNKAGGMHHICIEVDNINAAVMDLKKKKIRSLSEEVKIGAHGKPVIFLHPKDCGGVLVELEQA
soluble on expression in E. coli: soluble

GHMSTPLTLIATITAAPGHAEALERELRALVAPSRAEAGCLQYDLHQDRHDSHLFYMIEQWRDDAALERHQNTEHFLRFSRGNEALLQNVKIDQLYRLA
soluble on expression in E. coli: soluble
